Measurements from patent US20250320468A1, “New Microbial Diamine Oxidase Derived from Yarrowia Lipolytica for the Degradation of Biogenic Amines” (UNIVERSITÄT HOHENHEIM, priority 2021, published 2025).
Entries after “also recorded” stand apart in the source; their conditions may differ. Read-outs that look alike come from different tables or passages of the source.

Assays:
[1] = test system: human diamine oxidase (DAO); settings: cited from earlier work
[2] = target: T1, Yarrowia lipolytica PO1f diamine oxidase-1 (DAO-1), wild type, SEQ ID NO: 1 (Yarrowia lipolytica, UniProt Q6CGT2)
T1 sequence (Q6CGT2 1-671): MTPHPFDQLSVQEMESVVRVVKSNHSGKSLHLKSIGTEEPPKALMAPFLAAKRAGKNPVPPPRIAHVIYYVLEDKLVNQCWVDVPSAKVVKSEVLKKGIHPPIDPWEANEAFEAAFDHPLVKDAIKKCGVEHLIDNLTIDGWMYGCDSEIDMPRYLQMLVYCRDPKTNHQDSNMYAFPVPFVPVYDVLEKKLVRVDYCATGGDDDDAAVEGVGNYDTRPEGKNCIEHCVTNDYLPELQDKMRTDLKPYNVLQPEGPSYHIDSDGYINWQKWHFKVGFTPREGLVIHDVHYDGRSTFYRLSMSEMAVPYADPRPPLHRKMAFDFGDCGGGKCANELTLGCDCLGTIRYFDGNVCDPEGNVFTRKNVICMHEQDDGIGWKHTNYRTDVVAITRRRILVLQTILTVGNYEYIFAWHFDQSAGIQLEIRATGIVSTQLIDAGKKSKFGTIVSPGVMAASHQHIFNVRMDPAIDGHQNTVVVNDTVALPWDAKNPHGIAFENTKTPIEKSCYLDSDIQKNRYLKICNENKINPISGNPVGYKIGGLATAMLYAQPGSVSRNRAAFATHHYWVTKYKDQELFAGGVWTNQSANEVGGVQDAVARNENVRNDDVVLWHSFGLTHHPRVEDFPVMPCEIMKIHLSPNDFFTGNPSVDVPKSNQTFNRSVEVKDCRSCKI
Method: DAO-1 activity was determined with the DA-67 assay.
The DAO-1 activity was determined using a colorimetric DA-67 enzyme assay. […] Subsequently, 12 μL (266 units/mL) of horseradish peroxidase (Grade I) were added. The reaction was started by the addition of 25 μL DAO solution and incubated at 37° C. for 10 min and stirred at 750 rpm. The reaction was stopped by the addition of 50 μL sodium diethyldithiocarbamate (30 mM). After centrifugation (10,000 g for 3 min at 20° C.), the absorption was measured at 668 nm. […] Hydrogen peroxide (0.5 to 10 nmol/mL) was used for the calibration. The enzyme activity was calculated in nkat, whereby 1 nkat converts 1 nmol substrate/s at 37° C.
The DAO-1 activity was determined using the DA-67 assay. For unhydrolyzed conditions, the DA-67 reagent (50 μM) was prepared in SIF containing BSA, WPI, sodium-caseinate each at 35.6 g/L and 106.8 g/L sucrose (pH 6.8). […] The DAO-1 was desalted against SIF using PD MidiTrap G-25 columns.
For the hydrolyzed conditions, BSA, WPI, sodium-caseinate each at 16.67 g/L and 50 g/L sucrose were first incubated in SIF (with pancreatin) at 37° C. and 130 rpm for 90 min. […]
All experiments were done at least in duplicate and evaluated by determining the standard deviation with Excel. […] Enzyme kinetics were evaluated by nonlinear regression using the data analyzing software Sigmaplot 12.5 (Systat Software GmbH, Erkrath, Germany).

[3] = test system: Aspergillus niger amine oxidase; settings: cited from earlier work
[4] = test system: porcine kidney diamine oxidase (DAO); settings: cited from earlier work
[5] = target: T1, Yarrowia lipolytica PO1f diamine oxidase-1 (DAO-1), wild type, SEQ ID NO: 1; experiment: Michaelis-Menten kinetics of DAO-1 with histamine, DA-67 assay in PIPES buffer; type: biochemical; settings: PIPES buffer (25 mM; pH 7.2), 37° C.
Method: DAO-1 activity determined with the DA-67 assay in PIPES buffer (25 mM; pH 7.2) at 37° C.
The DAO activity was determined using the colorimetric DA-67 enzyme assay, as known in the art. […] Subsequently, 24 μL (266 units/mL) of horseradish peroxidase (Grade I) were added. The reaction was started by the addition of 50 μL enzyme solution and incubated at 37° C. for 10 min and stirred at 750 rpm. The reaction was stopped by the addition of 50 μL sodium diethyldithiocarbamate (30 mM). After centrifugation (10,000 g for 3 min at 20° C.), the absorption was measured at 668 nm. […] Hydrogen peroxide (0.5 to 10 nmol/mL) was used for the calibration. The enzyme activity was calculated in nkat, whereby 1 nkat converts 1 nmol substrate/s at 37° C.
Kinetic investigations were done within the initial reaction velocity.
Data are presented as mean values with standard deviation. Enzyme kinetics were evaluated by nonlinear regression using the data analyzing software Sigmaplot 12.5 (Systat Software GmbH, Erkrath, Germany).

[6] = test system: Arthrobacter crystallopoietes KAIT-B-007 histamine oxidase; settings: cited from earlier work
[7] = DAO activity of Y. lipolytica PO1f_axp_dao-2 cell extract versus wildtype extract; type: biochemical
Method: (§1) The DAO activity was determined using the colorimetric DA-67 enzyme assay, as known in the art.
(§2) Y. lipolytica PO1f was identified as the owner of two putative DAOs using the BLAST program (https://blast.ncbi.nlm.nih.gov). […] Both genes were amplified from the genome of the Y. lipolytica strain PO1f and successfully integrated into the axp locus of the genome (integration efficiency of around 20%), resulting in the recombinant strains Y. lipolytica PO1f_axp_dao-1 and Y. lipolytica PO1f_axp_dao-2. The genes were integrated into the axp locus because it allowed efficient expression of the proteins desired with the chosen strategy for homologous recombinant integration, as known in the art. Gene expression was thereby conducted using the strong, constitutive promoter UAS1B8_TEF (136).

[8] = DAO activity of Y. lipolytica PO1f_axp_dao-2 cell extract versus wildtype extract, agmatine; type: biochemical
Method: as §1, §2

[9] = cited from earlier work
[10] = simulated intestinal fluid; cited from earlier work
[11] = cited from earlier work; for in vitro reduction of histamine: 150 mg/L (75 mg) histamine, 50 nkat (0.1 nkat/mL), 5 h
[12] = kinetic studies from the art; cited from earlier work
[13] = substrates at 1 mM; cited from earlier work
[14] = extracted and partially purified from pig kidney (heat treatment, salt precipitation, HIC), cited from earlier work
[15] = read-out: Ki (substrate inhibition by histamine)

Molecule: NCCc1c[nH]cn1 [histamine]
- Km [1]: 2.8 µM
- Ki [1, 15]: 280 µM
- substrate inhibition recognized for histamine concentrations ([2]; hydrolyzed food-matrix SIF 3): greater than 12.5 mM
- substrate inhibition recognized for histamine concentrations ([2]; unhydrolyzed food-matrix SIF 3): greater than 12.5 mM
- Km [3]: 600 µM
- Km [4]: 27 µM
- substrate inhibition by histamine concentrations ([4]; porcine kidney DAO, 56 mg/L (0.5 mM)): > 0.5 mM
- Ki [4, 15]: 5710 µM
- substrate inhibition recognized for histamine concentrations [5]: greater than 12.5 mM
- Km [6]: 500 µM

B1: DAO-2: second putative DAO from Y. lipolytica PO1f (Uniprot: A0A371BXN9), gene dao-2 SEQ ID NO: 3 (protein, listed as Yarrowia lipolytica)
chain: MHRLSQLATQTTAATITAGHPLDPLSPSEIEHAASIVKSQMRDSSPYRFNLITLIEPPKAELLAWEASPSSVAKPPRRAEVVLVVRGKKGVTEGRVCLTGSKVLSWSEIEGVQPILTVDDLQKVEEIVRQDPEVIKQCKLIGVDNMSQVYCDPWTIGYDERWGAERRLQQAFLYFRAHQDDSQYSHPLDFTPIYDATEQKVIFIDIPPVRRPLSKLKNSNFNPQDISKTTGYRDVKPIDVSQPEGVNFKMTGRIMEWQGFRFHVGFNYREGIVLSQISFNDHGNQRNMFHRLSLVEMVVPYGNPEHPHQRKHAFDLGEYGAGLMTNPLSLGCDCKGVIHYLDAHFSDAEGKPLTVPNAVCIHEEDNGLLFKHSDFRDEFQTSIVTRATKLILSQIFTAANYEYCVYWIFHQDGTIQLEIKLTGILNTFPCNPGEDLHGWGTEVYPGTNAHNHQHLFSLRIHPAIDSQLHPGNSVAMVDAERSPFPPGHPENLHGNGFRPKRTVFNNPIEAMTDYDGNTSRTWDFFNPKSINQYSKKPASYKLVSRECPPLLPQPGGLVWNRAGFARHHMHVVPYVDGQLYPAGRFVCQTSGKPSRGLPEWIEQCGEKANINDTDVVAYHTFGLTHFPAPEDFPLMPAEPMTLLLRPRNFFLQNPALDVPPSHARTTTEAQAASGAKVVSLTDKVSQLAFNKSCCSK
- enzyme activity towards histamine ([7]; recombinant Y. lipolytica PO1f_axp_dao-2 extract): no activity; also recorded: did not show enzyme activity
- increase in DAO-activity versus wildtype cell extract ([7]; substrates histamine, putrescine, cadaverine, tyramine, spermidine, tryptamine): did not show an increase
- activity with agmatine ([8]; cell extract, shaking flask): around 50 nkatAgmatine (14.5 mM)/LCulture
- increase in activity versus wildtype cell extract ([8]; substrate agmatine): 5.5 fold

B2: porcine DAO: DAO extracted from porcine kidney (Uniprot: Q9TRC7), prior-art comparator (protein, UniProt Q9TRC7 25-755, looked up)
Diamine oxidase …: ERSPRTPGGKAGVFADLSAQELKAVHSFLWSQKELKLEPSGTLTMAKNSVFLIEMLLPKKQHVLKFLDKGHRRPVREARAVIFFGAQEQPNVTEFAVGPLPTPRYMRDLPPRPGHQVSWASRPISKAEYALLSHKLQEATQPLRQFFRRTTGSSFGDCHEQCLTFTDVAPRGLASGQRRTWFILQRQMPGYFLHPTGLELLVDHGSTNAQDWTVEQVWYNGKFYRSPEELAQKYNDGEVDVVILEDPLAKGKDGESLPEPALFSFYQPRGDFAVTMHGPHVVQPQGPRYSLEGNRVMYGGWSFAFRLRSSSGLQILDVHFGGERIAYEVSVQEAVALYGGHTPAGMQTKYIDVGWGLGSVTHELAPDIDCPETATFLDALHHYDADGPVLYPRALCLFEMPTGVPLRRHFNSNFSGGFNFYAGLKGQVLVLRTTSTVYNYDYIWDFIFYPNGVMEAKMHATGYVHATFYTPEGLRYGTRLHTHLIGNMHTHLVNYRVDLDVAGTTNSFQTLQMELENITNPWSPRHRLVQPTLKQTRYSRERQAAFRFGQPLPKYLLITSPKENPWGHTRSYRLQLHSMADQVLPPGWQEERAVTWARYPLAVTRYRESELSSSSIYNQNDPWDPPVVFEEFLRNNENIEDEDLVAWVTVGFLHIPHSEDIPNTATPGNSVGFLLRPFNFFPEDPALASRDLVVVWPLENGSTYAQRWIPEEDQSCLKPPPFSYNGSYRPV
- pH of maximal DAO activity ([9]; cadaverine as substrate, potassium phosphate buffer): 7.4
- pH of maximal DAO activity ([9]; histamine as substrate, potassium phosphate buffer): 6.3
- half-life [10]: approximately 19 minutes
- in vitro reduction of histamine [11]: Around 90%
- in vitro reduction of histamine ([11]; listed as free porcine DAO): about 90%
- DAO activity required for the degradation of food-relevant histamine (75 mg) ([11]; within 5 h under in vitro conditions, about 90% reduction): 50 nkat
- histamine concentration above which substrate inhibition occurs [12]: greater than 56 mg/L
- DAO activity with histamine compared to the maximal measured activity with putrescine [13]: 19%
- specific DAO activity [14]: 81 nkat/gProtein
- specific DAO activity ([14]; listed as DAO from porcine kidney): 81±1 nkat/gProtein

B3: human DAO: human diamine oxidase (Uniprot: P19801), prior-art comparator (protein, UniProt P19801 20-751, looked up)
Diamine oxidase …: EPSPGTLPRKAGVFSDLSNQELKAVHSFLWSKKELRLQPSSTTTMAKNTVFLIEMLLPKKYHVLRFLDKGERHPVREARAVIFFGDQEHPNVTEFAVGPLPGPCYMRALSPRPGYQSSWASRPISTAEYALLYHTLQEATKPLHQFFLNTTGFSFQDCHDRCLAFTDVAPRGVASGQRRSWLIIQRYVEGYFLHPTGLELLVDHGSTDAGHWAVEQVWYNGKFYGSPEELARKYADGEVDVVVLEDPLPGGKGHDSTEEPPLFSSHKPRGDFPSPIHVSGPRLVQPHGPRFRLEGNAVLYGGWSFAFRLRSSSGLQVLNVHFGGERIAYEVSVQEAVALYGGHTPAGMQTKYLDVGWGLGSVTHELAPGIDCPETATFLDTFHYYDADDPVHYPRALCLFEMPTGVPLRRHFNSNFKGGFNFYAGLKGQVLVLRTTSTVYNYDYIWDFIFYPNGVMEAKMHATGYVHATFYTPEGLRHGTRLHTHLIGNIHTHLVHYRVDLDVAGTKNSFQTLQMKLENITNPWSPRHRVVQPTLEQTQYSWERQAAFRFKRKLPKYLLFTSPQENPWGHKRTYRLQIHSMADQVLPPGWQEEQAITWARYPLAVTKYRESELCSSSIYHQNDPWHPPVVFEQFLHNNENIENEDLVAWVTVGFLHIPHSEDIPNTATPGNSVGFLLRPFNFFPEDPSLASRDTVIVWPRDNGPNYVQRWIPEDRDCSMPPPFSYNGTYRPV
- pH of maximal DAO activity ([9]; putrescine as substrate, phosphate buffer, DAO from blood serum): 7.5
